The values that follow come from PMC8427755.

For test [1], the target named is recombinant human FcRn receptor (FcRn alpha-chain and beta2-microglobulin heterodimer), biotinylated (human) (UniProt P55899). Briefly: BLI; Octet RED96; biotinylated hFcRn fixed on streptavidin biosensors; Fc samples 200-3.125 nM; 0.1 M phosphate, 150 mM NaCl, 0.05% Tween 20, pH 6.0; 1/1 model; means of 3 experiments. On the technique in general: In BLI a coated tip is dipped into the sample, and binding shifts an interference pattern.

The target of test [2] is Recombinant human FcγRIIIa V/CD16aV (human). Briefly: BLI; Octet RED96; His-tagged hFcγRIIIa V fixed on anti-penta-His (HIS-1K) biosensors; Fc samples 1,000-15.625 nM in kinetic buffer, pH 7.4; 1/1 model; means of 3 experiments.
The target in test [3] is His-tagged hFcγRIIIa (Sinobiological) (human) (UniProt P08637). Briefly: SPR; Biacore T200, CM5 chip with anti-His capture; His-tagged hFcγRIIIa or mFcγRIV captured; 15 mM Tris-HCl, 150 mM NaCl, 0.005% Tween 20, pH 7.4, 25°C; single cycle (hFcγRIIIa) or multi cycle (mFcγRIV) kinetics; 1:1 Langmuir model, two state reaction model for LFBD192 on hFcγRIIIa.
UniProt P08637, sequence (P08637 17-254): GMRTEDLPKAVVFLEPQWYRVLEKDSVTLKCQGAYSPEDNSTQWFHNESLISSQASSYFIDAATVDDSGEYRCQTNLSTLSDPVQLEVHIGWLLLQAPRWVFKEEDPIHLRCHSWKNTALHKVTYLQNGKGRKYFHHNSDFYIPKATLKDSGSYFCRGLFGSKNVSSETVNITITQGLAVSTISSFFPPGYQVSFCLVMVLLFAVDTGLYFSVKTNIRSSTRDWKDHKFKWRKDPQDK
The target in test [4] is His-tagged mFcγRIV (R&D Systems) (mouse). The description is as above.
Test [5] concerns the target biotinylated human FcRn (Acrobiosystem) (human) (UniProt P55899). Briefly: SPR; Biacore T200, sensor chip CAP; biotinylated human or mouse FcRn captured; samples injected in single cycle kinetic mode, 25°C; 20 mM sodium phosphate, 150 mM NaCl, 0.05% Tween 20, pH 6.0; 1:1 Langmuir model, steady state model for IVIg on hFcRn. (SPR reads the build-up and loss of mass on a sensor chip optically.)

The target in test [6] is biotinylated mouse FcRn (Acrobiosystem) (mouse | not stated) (UniProt Q61559). The test is described as above.
UniProt Q61559, sequence (Q61559 22-297, chain 1 of 2): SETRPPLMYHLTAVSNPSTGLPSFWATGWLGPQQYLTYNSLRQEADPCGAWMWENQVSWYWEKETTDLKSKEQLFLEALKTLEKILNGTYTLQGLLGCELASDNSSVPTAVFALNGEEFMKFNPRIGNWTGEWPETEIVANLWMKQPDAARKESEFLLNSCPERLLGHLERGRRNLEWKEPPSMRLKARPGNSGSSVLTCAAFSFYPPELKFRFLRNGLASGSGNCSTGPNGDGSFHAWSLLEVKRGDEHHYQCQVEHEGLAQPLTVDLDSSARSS
UniProt Q61559, sequence (P01887 21-119, chain 2 of 2, further chain): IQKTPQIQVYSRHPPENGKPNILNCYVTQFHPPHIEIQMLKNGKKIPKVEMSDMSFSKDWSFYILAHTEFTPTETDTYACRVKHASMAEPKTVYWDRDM
Test [7] concerns the target human FcRn expressed at the surface of Jurkat cells (human) (UniProt P55899). Briefly: flow cytometry on cells; competitive binding on FcRn-transfected Jurkat cells; Alexa-labelled rituximab (30 ug/mL) with the tested molecule, PBS pH 6.0; mean of 2 experiments. In general terms: In flow cytometry, cells or beads pass a laser one at a time.
The target in test [8] is FcγRIIIa-F158 on transfected Jurkat cells (human) (UniProt P08637). Briefly: flow cytometry on cells; competitive binding on FcγRIIIa-F158-transfected Jurkat cells; FITC-conjugated anti-FcγRIIIa 3G8 (0.5 ug/mL) with 17-2168 nM of the tested molecule, 20 min, 4°C, PBS pH 7.4; mean of 2 experiments.
Test [9] has as its target FcγRI on transfected Jurkat cells (human) (UniProt P12314).
UniProt P12314, sequence (P12314 16-374): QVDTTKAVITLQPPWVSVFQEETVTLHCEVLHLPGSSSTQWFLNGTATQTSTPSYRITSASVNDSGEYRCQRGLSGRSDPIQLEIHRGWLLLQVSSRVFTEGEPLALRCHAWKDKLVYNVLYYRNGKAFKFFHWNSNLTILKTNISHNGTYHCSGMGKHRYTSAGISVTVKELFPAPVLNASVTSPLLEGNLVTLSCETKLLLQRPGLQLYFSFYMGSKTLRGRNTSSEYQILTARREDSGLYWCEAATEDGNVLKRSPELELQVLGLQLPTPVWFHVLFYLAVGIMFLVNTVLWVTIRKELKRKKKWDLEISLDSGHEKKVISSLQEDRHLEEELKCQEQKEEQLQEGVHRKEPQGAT
For test [10], the target named is FcγRIIa-R131 on transfected HEK cells (human). Briefly: flow cytometry on cells; competitive binding on cells transfected with FcγRIIa-H131, FcγRIIa-R131, FcγRIIb or FcγRI; Alexa-labelled rituximab (30 ug/mL) with the tested molecule, PBS pH 7.4; mean of 2 experiments.
The target in test [11] is FcγRI on transfected Jurkat cells (human) (UniProt P12314). The description is as above.
Test [12] deals with FcγRIIb on transfected HEK cells (human) (UniProt P31994). The test is described as above.
UniProt P31994, sequence (P31994 43-310): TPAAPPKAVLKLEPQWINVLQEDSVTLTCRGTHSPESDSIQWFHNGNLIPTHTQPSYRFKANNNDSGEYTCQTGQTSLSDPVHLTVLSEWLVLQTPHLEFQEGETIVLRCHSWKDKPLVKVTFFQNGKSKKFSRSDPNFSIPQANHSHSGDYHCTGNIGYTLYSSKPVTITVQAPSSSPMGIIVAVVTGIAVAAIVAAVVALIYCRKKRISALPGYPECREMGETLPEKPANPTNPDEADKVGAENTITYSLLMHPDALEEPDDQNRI
Test [13] concerns the target FcγRIIa-H131 on transfected cells (human) (UniProt P12318). The test is described as above.
UniProt P12318, sequence (P12318 34-317): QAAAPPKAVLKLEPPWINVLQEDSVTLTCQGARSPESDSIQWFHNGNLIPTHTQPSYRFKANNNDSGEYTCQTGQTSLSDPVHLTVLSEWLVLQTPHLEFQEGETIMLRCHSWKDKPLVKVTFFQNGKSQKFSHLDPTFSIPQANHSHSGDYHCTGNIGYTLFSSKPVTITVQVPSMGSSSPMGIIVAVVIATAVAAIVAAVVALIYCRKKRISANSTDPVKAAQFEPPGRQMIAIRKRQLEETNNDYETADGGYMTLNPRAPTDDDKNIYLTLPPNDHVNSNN

As to “rFc-WT (non-mutated Fc fragment of human IgG1) (domain or fragment)”, the Kd (as a rule, the constant that tells how readily two partners part at equilibrium) in test [1] turned out to be 36.5 nM; in [2], 504 nM.

Consider intravenous immunoglobulin (IVIg), for which the Kd is 40 nM in test [3], 554 nM in test [4], 469 nM in test [5] and 17.1 nM in [6]. Moreover, the IC50 (as a rule, the concentration that inhibits the measured activity by half) in [7] came out at 1360 nM; in [8], 1680 nM; in [10], 1310 nM; in test [11], 880 nM; in [12], 761 nM; in test [13] it was 671 nM. The substance also gave an IC50 of inhibition of IL-2 secretion by FcγRI-transfected Jurkat cells co-cultured with Raji cells coated with rituximab in test [9] of over 1950 nM. In addition, the inhibitory concentration at 25% of IL-2 secretion by FcγRI-transfected Jurkat cells co-cultured with Raji cells coated with rituximab in [9] was 1110 nM.
